The values below come from patent US20190225692A1 (JUNO THERAPEUTICS, published 2019).

In test [1] the target is T1, HLA-A2/E7 (11-19) tetramer (human; HPV 16).
T1 construct: also called E7(11-19) peptide-MHC tetramer; E7 (11-19)-loaded tetramer
The test can be described thus: tetramer flow cytometry; transfected 1:1 CD4+ and CD4+/CD8+ Jurkat-derived cells. (In general: A flow cytometer gives signals particle by particle.)
Description: (§1) For transfection, the CD4+ and CD4+/CD8+ cell mixtures were transiently transfected with TCR-encoding plasmids and 48 hours after transfection, cells were assessed by flow cytometry for (1) binding of the target peptide in the context of an MHC molecule (HLA:A02:01) by staining with an E6(29-38) peptide- or an E7(11-19) peptide-MHC tetramer reagent, and/or (2) CD8+ independent binding of the target by co-staining the tetramer-labeled cells with an anti-CD8 antibody.

Test [2] concerns the target T2, HLA-A2/E6 (29-38) tetramer (human; HPV 16).
T2 construct: also called E6(29-38) peptide-MHC tetramer; E6(29-38)-loaded tetramer
The description is as above.
Description: as §1

Test [3] deals with T2, HLA-A2/E6 (29-38) tetramer. The test can be described thus: tetramer flow cytometry; transfected Jurkat-derived cells, CD8+ population.
Description: as §1

Where a chain is given by its changes, count along the chain named.
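Throughout, for % cells in E7 tet+/CD8+ quadrant: cells transiently transfected with TCR plasmids, stained 48 h later with HLA-A*02:01 peptide-MHC tetramer plus anti-CD8 antibody, read by flow cytometry to assess CD8-independent tetramer binding.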
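Throughout, for % cells in E7 tet+/CD8- quadrant: cells transiently transfected with TCR plasmids, stained 48 h later with HLA-A*02:01 peptide-MHC tetramer plus anti-CD8 antibody, read by flow cytometry to assess CD8-independent tetramer binding.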
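Throughout, for % cells in E7 tet-/CD8+ quadrant: cells transiently transfected with TCR plasmids, stained 48 h later with HLA-A*02:01 peptide-MHC tetramer plus anti-CD8 antibody, read by flow cytometry to assess CD8-independent tetramer binding.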
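Throughout, for % cells in E7 tet-/CD8- quadrant: cells transiently transfected with TCR plasmids, stained 48 h later with HLA-A*02:01 peptide-MHC tetramer plus anti-CD8 antibody, read by flow cytometry to assess CD8-independent tetramer binding.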

B1: TCR 53 (codon optimized, cysteine modified version) (TCR, V domains shown)
V domain 1: AQSVAQPEDQVNVAEGNPLTVKCTYSVSGNPYLFWYVQYPNRGLQFLLKYITGDNLVKGSYGFEAEFNKSQTSFHLKKPSALVSDSALYFCAVRDFGSGTYKYIFG
V domain 2: GAGVSQSPRYKVTKRGQDVALRCDPISGHVSLYWYRQALGQGPEFLTYFNYEAQQDKSGLPNDRFSAERPEGSISTLTIQRTEQRDSAMYRCASSGSGTSGYNEQFFGPGTRLTVLE
On to B1, for which, in test [1], the “% cells in E7 tet+/CD8+ quadrant” value came out at 3.35%, the “% cells in E7 tet+/CD8- quadrant” value came to 0.43%, the “% cells in E7 tet-/CD8+ quadrant” value was found to be 28.7% and the “% cells in E7 tet-/CD8- quadrant” value amounted to 67.5%.

B2: TCR 30 (codon optimized, cysteine modified version) (TCR, V domains shown)
V domain 1: DAKTTQPPSMDCAEGRAANLPCNHSTISGNEYVYWYRQIHSQGPQYIIHGLKNNETNEMASLIITEDRKSSTLILPHATLRDTAVYYCIVRGTSVLQGNEKLTFGTGTRLTIIP
V domain 2: EPEVTQTPSHQVTQMGQEVILRCVPISNHLYFYWYRQILGQKVEFLVSFYNNEISEKSEIFDDQFSVERPDGSNFTLKIRSTKLEDSAMYFCASSRQPSSGNTIYFGEGSWLTVVE
For the molecule B2, in test [2], the “% cells in E6 tet+/CD8+ quadrant” value was determined as 31%, the “% cells in E6 tet+/CD8- quadrant” value came to 0.74%, the “% cells in E6 tet-/CD8+ quadrant” value worked out at 13.9% and the “% cells in E6 tet-/CD8- quadrant” value came out at 54.3%.

B3: TCR 15 (codon optimized, cysteine modified version) (TCR, V domains shown)
V domain 1: AQKITQTQPGMFVQEKEAVTLDCTYDTSDQSYGLFWYKQPSSGEMIFLIYQGSYDEQNATEGRYSLNFQKARKSANLVISASQLGDSAMYFCAMKPGGYNKLIFGAGTRLAVHP
V domain 2: DAGVIQSPRHEVTEMGQEVTLRCKPISGHNSLFWYRQTMMRGLELLIYFNNNVPIDDSGMPEDRFSAKMPNASFSTLKIQPSEPRDSAVYFCASSLVGRSRTEQYFGPGTRLTVTE
Regarding B3, in test [2], the “% cells in E6 tet+/CD8+ quadrant” value is 21.4%, the “% cells in E6 tet+/CD8- quadrant” value was found to be 40.2%, the “% cells in E6 tet-/CD8+ quadrant” value is 13.6% and the “% cells in E6 tet-/CD8- quadrant” value stood at 24.8%.

B4: TCR 26 (codon optimized, cysteine modified version) (TCR, V domains shown)
V domain 1: B3 V domain 1 with K95R, P96D, G97A, G98R, Y99N, K101D, L102M, I103R, A111T, H113K
V domain 2: NAGVTQTPKFRVLKTGQSMTLLCAQDMNHEYMYWYRQDPGMGLRLIHYSVGEGTTAKGEVPDGYNVSRLKKQNFLLGLESAAPSQTSVYFCASSYYASGRNYEQYFGPGTRLTVTE
As to B4, in test [2], the “% cells in E6 tet+/CD8+ quadrant” value turned out to be 42.3%, the “% cells in E6 tet+/CD8- quadrant” value was 47.4%, the “% cells in E6 tet-/CD8+ quadrant” value turned out to be 1.58% and the “% cells in E6 tet-/CD8- quadrant” value stood at 8.73%.

B5: TCR 29 (codon optimized, cysteine modified version) (TCR, V domains shown)
V domain 1: AQKITQTQPGMFVQEKEAVTLDCTYDTSDQSYGLFWYKQPSSGEMIFLIYQGSYDEQNATEGRYSLNFQKARKSANLVISASQLGDSAMYFCAMRLNTGTASKLTFGTGTRLQVTL
V domain 2: DGGITQSPKYLFRKEGQNVTLSCEQNLNHDAMYWYRQDPGQGLRLIYYSQIVNDFQKGDIAEGYSVSREKKESFPLTVTSAQKNPTAFYLCASSPWGRATNEQFFGPGTRLTVLE
For the molecule B5, in test [2], the “% cells in E6 tet+/CD8+ quadrant” value came out at 35.6%, the “% cells in E6 tet+/CD8- quadrant” value is 44.5%, the “% cells in E6 tet-/CD8+ quadrant” value is 2% and the “% cells in E6 tet-/CD8- quadrant” value is 17.9%.

B6: TCR 50 (codon optimized, cysteine modified version) (TCR, V domains shown)
V domain 1: GEDVEQSLFLSVREGDSSVINCTYTDSSSTYLYWYKQEPGAGLQLLTYIFSNMDMKQDQRLTVLLNKKDKHLSLRIADTQTGDSAIYFCAESPPGTYKYIFGTGTRLKVLA
V domain 2: DSGVTQTPKHLITATGQRVTLRCSPRSGDLSVYWYQQSLDQGLQFLIHYYNGEERAKGNILERFSAQQFPDLHSELNLSSLELGDSALYFCASSATRDAYGYTFGSGTRLTVVE
Turning to B6, in test [1], the “% cells in E7 tet+/CD8+ quadrant” value stood at 3.28%, the “% cells in E7 tet+/CD8- quadrant” value was 0.25%, the “% cells in E7 tet-/CD8+ quadrant” value was 30.7% and the “% cells in E7 tet-/CD8- quadrant” value worked out at 65.8%.

B7: TCR 51 (codon optimized, cysteine modified version) (TCR, V domains shown)
V domain 1: QKEVEQNSGPLSVPEGAIASLNCTYSDRGSQSFFWYRQYSGKSPELIMSIYSNGDKEDGRFTAQLNKASQYVSLLIRDSQPSDSATYLCAVNMRGGGSNYKLTFGKGTLLTVNP
V domain 2: EPEVTQTPSHQVTQMGQEVILRCVPISNHLYFYWYRQILGQKVEFLVSFYNNEISEKSEIFDDQFSVERPDGSNFTLKIRSTKLEDSAMYFCAIASRVSYEQYFGPGTRLTVTE
For B7, in test [1], the “% cells in E7 tet+/CD8+ quadrant” value amounted to 5.7%, the “% cells in E7 tet+/CD8- quadrant” value was determined as 2.06%, the “% cells in E7 tet-/CD8+ quadrant” value amounted to 27.5% and the “% cells in E7 tet-/CD8- quadrant” value was determined as 64.7%.

B8: TCR 55 (codon optimized, cysteine modified version) (TCR)
TCR alpha: GEDVEQSLFLSVREGDSSVINCTYTDSSSTYLYWYKQEPGAGLQLLTYIFSNMDMKQDQRLTVLLNKKDKHLSLRIADTQTGDSAIYFCAVPSGATNKLIFGTGTLLAVQPNIQNPDPAVYQLRDSKSSDKSVCLFTDFDSQTNVSQSKDSDVYITDKCVLDMRSMDFKSNSAVAWSNKSDFACANAFNNSIIPEDTFFPSPESSCDVKLVEKSFETDTNLNFQNLSVIGFRILLLKVAGFNLLMTLRLWSS
TCR beta: EPEVTQTPSHQVTQMGQEVILRCVPISNHLYFYWYRQILGQKVEFLVSFYNNEISEKSEIFDDQFSVERPDGSNFTLKIRSTKLEDSAMYFCASTTRSSYEQYFGPGTRLTVTEDLKNVFPPEVAVFEPSEAEISHTQKATLVCLATGFYPDHVELSWWVNGKEVHSGVCTDPQPLKEQPALNDSRYCLSSRLRVSATFWQNPRNHFRCQVQFYGLSENDEWTQDRAKPVTQIVSAEAWGRADCGFTSESYQQGVLSATILYEILLGKATLYAVLVSALVLMAMVKRKDSRG
Turning to B8, in test [1], the “% cells in E7 tet+/CD8+ quadrant” value stood at 1.45%, the “% cells in E7 tet+/CD8- quadrant” value amounted to 0.28%, the “% cells in E7 tet-/CD8+ quadrant” value was 50.4% and the “% cells in E7 tet-/CD8- quadrant” value turned out to be 47.9%.

B9: modified version of TCR 13 (codon optimized, cysteine modified) (TCR, V domains shown)
V domain 1: AQSVTQLDSHVSVSEGTPVLLRCNYSSSYSPSLFWYVQHPNKGLQLLLKYTSAATLVKGINGFEAEFKKSETSFHLTKPSAHMSDAAEYFCVVRGGKLIFGQGTELSVKP
V domain 2: GAGVSQSPRYKVAKRGQDVALRCDPISGHVSLFWYQQALGQGPEFLTYFQNEAQLDKSGLPSDRFFAERPEGSVSTLKIQRTQQEDSAVYLCASSPTGTERELFFGEGSRLTVLE
On to B9, for which, in test [3], the “% cells in E6 tet+/CD8+ quadrant” value stood at 38.6%, the “% cells in E6 tet+/CD8- quadrant” value turned out to be 0.064%, the “% cells in E6 tet-/CD8+ quadrant” value amounted to 59.5% and the “% cells in E6 tet-/CD8- quadrant” value came to 1.82%.

B10: TCR 28 (codon optimized, cysteine modified version) (TCR, V domains shown)
V domain 1: RKEVEQDPGPFNVPEGATVAFNCTYSNSASQSFFWYRQDCRKEPKLLMSVYSSGNEDGRFTAQLNRASQYISLLIRDSKLSDSATYLCVVRGGGTSYGKLTFGQGTILTVHP
V domain 2: DVKVTQSSRYLVKRTGEKVFLECVQDMDHENMFWYRQDPGLGLRLIYFSYDVKMKEKGDIPEGYSVSREKKERFSLILESASTNQTSMYLCASSLWGRSSGNTIYFGEGSWLTVVE
Regarding B10, in test [2], the “% cells in E6 tet+/CD8+ quadrant” value is 13.1%, the “% cells in E6 tet+/CD8- quadrant” value came to 0.15%, the “% cells in E6 tet-/CD8+ quadrant” value is 31.4% and the “% cells in E6 tet-/CD8- quadrant” value was found to be 55.4%.

B11: TCR 20 (codon optimized, cysteine modified version) (TCR, V domains shown)
V domain 1: AQKVTQAQTEISVVEKEDVTLDCVYETRDTTYYLFWYKQPPSGELVFLIRRNSFDEQNEISGRYSWNFQKSTSSFNFTITASQVVDSAVYFCALWTGANNLFFGTGTRLTVIP
V domain 2: GAVVSQHPSRVICKSGTSVKIECRSLDFQATTMFWYRQFPKQSLMLMATSNEGSKATYEQGVEKDKFLINHASLTLSTLTVTSAHPEDSSFYICSASSLARRSYEQYFGPGTRLTVTE
In the case of B11, in test [2], the “% cells in E6 tet+/CD8+ quadrant” value was 38.2%, the “% cells in E6 tet+/CD8- quadrant” value came to 34.1%, the “% cells in E6 tet-/CD8+ quadrant” value is 5.17% and the “% cells in E6 tet-/CD8- quadrant” value was 22.6%.

B12: TCR 16 (codon optimized, cysteine modified version) (TCR, V domains shown)
V domain 1: KQEVTQIPAALSVPEGENLVLNCSFTDSAIYNLQWFRQDPGKGLTSLLLIQSSQREQTSGRLNASLDKSSGRSTLYIAASQPGDSATYLCAVRPANNNDMRFGAGTRLTVKP
V domain 2: DVKVTQSSRYLVKRTGEKVFLECVQDMDHENMFWYRQDPGLGLRLIYFSYDVKMKEKGDIPEGYSVSREKKERFSLILESASTNQTSMYLCASSLWGRSNQPQHFGDGTRLSILE
Consider B12, for which, in test [2], the “% cells in E6 tet+/CD8+ quadrant” value turned out to be 35.6%, the “% cells in E6 tet+/CD8- quadrant” value worked out at 28.2%, the “% cells in E6 tet-/CD8+ quadrant” value turned out to be 9.51% and the “% cells in E6 tet-/CD8- quadrant” value is 26.7%.

B13: TCR 19 (codon optimized, cysteine modified version) (TCR, V domains shown)
V domain 1: B5 V domain 1 with L96E
V domain 2: B12 V domain 2 with L95S, R98Q, N100T, Q101G, P102E, H104Y, D107P, S112T, I113V, L114T
Turning to B13, in test [2], the “% cells in E6 tet+/CD8+ quadrant” value amounted to 35.5%, the “% cells in E6 tet+/CD8- quadrant” value was determined as 20.8%, the “% cells in E6 tet-/CD8+ quadrant” value is 7.71% and the “% cells in E6 tet-/CD8- quadrant” value is 36%.

B14: TCR 25 (codon optimized, cysteine modified version) (TCR, V domains shown)
V domain 1: AQKITQTQPGMFVQEKEAVTLDCTYDTSDQSYGLFWYKQPSSGEMIFLIYQGSYDEQNATEGRYSLNFQKARKSANLVISASQLGDSAMYFCAMREGSLTGGGNKLTFGTGTQLKVEL
V domain 2: B12 V domain 2 with R98Q
Turning to B14, in test [2], the “% cells in E6 tet+/CD8+ quadrant” value came out at 34%, the “% cells in E6 tet+/CD8- quadrant” value came to 14.7%, the “% cells in E6 tet-/CD8+ quadrant” value turned out to be 10.2% and the “% cells in E6 tet-/CD8- quadrant” value is 41.1%.
